Experimental findings from publication PMC5072837 are described below.

Assay [1] has as its target FliD lacking the N-terminal coiled-coil domain (FliD_(78–474)) from the P. aeruginosa PAO1 strain (Pseudomonas aeruginosa PAO1) (UniProt Q9K3C5). Briefly: cross-linking; about 0.4 mg/mL protein, 20 mM EDC and 20 mM NHS, various time points; silver-stained SDS-PAGE.
Assay [2] concerns the target FliD_(78–405) from the P. aeruginosa PAO1 strain, with N-terminal His6-tag (crystallized construct) (Pseudomonas aeruginosa PAO1) (UniProt Q9K3C5). Kind of assay: crystal structure; His6-FliD78–405 crystals grown in 0.8 M NaK Tartrate, 0.1 M Hepes pH 7.5; 2.2 Å; P6 space group.
Assay [3] concerns the target FliD_(78–405) from the P. aeruginosa PAO1 strain, made as a GST fusion and cleaved (Pseudomonas aeruginosa PAO1) (UniProt Q9K3C5). Kind of assay: AUC; sedimentation velocity, 20°C, 30 mM Tris, 80 mM NaCl, pH 8.0; 295 μM FliD78–405, 124 μM FliD78–273, 168 μM FliD1–474.
For assay [4] the target is unchanged. Briefly: negative stain EM with class averaging; 2% uranyl acetate, about 3500 particles, class averages in EMAN2.
Assay [5] shares this target. Kind of assay: cross-linking; about 0.4 mg/mL protein, 20 mM EDC and 20 mM NHS, various time points; silver-stained SDS-PAGE.
For assay [6] the target is unchanged. Kind of assay: AUC; sedimentation velocity, 20°C, 20 mM sodium citrate, 80 mM NaCl, pH 5.0; 325 μM FliD78–405, 124 μM FliD78–273, 168 μM FliD1–474.
Assay [7] has the same target. Kind of assay: SAXS; 30 mM Tris pH 8.0, 80 mM NaCl; three concentrations of each protein; envelopes by DAMMIF with superimposed crystal structures.
Assay [8] concerns the target stable hexameric full-length FliD mutant FliD_(1–474(I167C/D253C)), purified recombinant protein (Pseudomonas aeruginosa PAO1) (UniProt Q9K3C5). The description is as above.
Assay [9] shares this target. Briefly: SDS-PAGE under non-reducing conditions; purified FliD1–474(I167C/D253C), reducing against non-reducing conditions.
The target in assay [10] is full-length FliD_(1–474) from the P. aeruginosa PAO1 strain (Pseudomonas aeruginosa PAO1) (UniProt Q9K3C5). Kind of assay: AUC; sedimentation velocity, 20°C, 30 mM Tris, 80 mM NaCl, pH 8.0; 295 μM FliD78–405, 124 μM FliD78–273, 168 μM FliD1–474.
Assay [11] has the same target. Briefly: cross-linking; about 0.4 mg/mL protein, 20 mM EDC and 20 mM NHS, various time points; silver-stained SDS-PAGE.
Assay [12] has the same target. Kind of assay: AUC; sedimentation velocity, 20°C, 20 mM sodium citrate, 80 mM NaCl, pH 5.0; 325 μM FliD78–405, 124 μM FliD78–273, 168 μM FliD1–474.
For assay [13] the target is unchanged. Kind of assay: AUC; sedimentation velocity, 4 μM FliD1–474 in 30 mM Tris, 80 mM NaCl, pH 8.0.
Assay [14] addresses head domain-only FliD (FliD_(78–273)) from the P. aeruginosa PAO1 strain (Pseudomonas aeruginosa PAO1) (UniProt Q9K3C5). Briefly: cross-linking; about 0.4 mg/mL protein, 20 mM EDC and 20 mM NHS, various time points; silver-stained SDS-PAGE.
Assay [15] shares this target. Briefly: AUC; sedimentation velocity, 20°C, 20 mM sodium citrate, 80 mM NaCl, pH 5.0; 325 μM FliD78–405, 124 μM FliD78–273, 168 μM FliD1–474.
The target is the same in assay [16]. Briefly: SAXS; 30 mM Tris pH 8.0, 80 mM NaCl; three concentrations of each protein; envelopes by DAMMIF with superimposed crystal structures.
Assay [17] concerns the target FliD_(1–474(I167C/D253C)) produced by Pseudomonas (complementation strain ΔfliD/fliD_(1–474(I167C/D253C))) (Pseudomonas aeruginosa PAO1) (UniProt Q9K3C5). Kind of assay: Western blot after non-reducing SDS-PAGE; flagella sheared off live bacteria, supernatant concentrated; detected with anti-FliD scFv-Fc SH1579-B7. (In western blotting, separated proteins are transferred to a membrane and probed.)

The target in assay [18] is FliD lacking the C-terminal coiled-coil domain (FliD_(1–405)) from the P. aeruginosa PAO1 strain (Pseudomonas aeruginosa PAO1) (UniProt Q9K3C5). Kind of assay: cross-linking; about 0.4 mg/mL protein, 20 mM EDC and 20 mM NHS, various time points; silver-stained SDS-PAGE.

Where “and” joins values, the source holds several entries; their conditions need not be identical. Equal values may be shown once.

Broadly, the stoichiometry N is a count of units in the complex or per binding partner. As for “FliD lacking the N-terminal coiled-coil domain (FliD_(78–474)) from the P. aeruginosa PAO1 strain (from UniProt Q9K3C5 78-474) (domain or fragment)”, in [1], the stoichiometry N was 2.

For “FliD_(78–405) from the P. aeruginosa PAO1 strain, with N-terminal His6-tag (crystallized construct) (from UniProt Q9K3C5 78-405) (domain or fragment)”, the stoichiometry N in assay [2] was 6 and 12.

On to “FliD_(78–405) from the P. aeruginosa PAO1 strain, made as a GST fusion and cleaved (from UniProt Q9K3C5 78-405) (domain or fragment)”, for which the stoichiometry N was 12 in assay [3]; 6 in assay [4]; less than 12 in assay [5]; 12 in assay [6]; 12 in [7].

On to “stable hexameric full-length FliD mutant FliD_(1–474(I167C/D253C)), purified recombinant protein (from UniProt Q9K3C5 1-474) (natural protein)”, for which the stoichiometry N in assay [8] and in assay [9] was 6 throughout.

Turning to “full-length FliD_(1–474) from the P. aeruginosa PAO1 strain (from UniProt Q9K3C5 1-474) (natural protein)”, the stoichiometry N in [10] was 4 and 6; in [11], less than 6; in assay [12], 4 and 6; in [13], 2.

“head domain-only FliD (FliD_(78–273)) from the P. aeruginosa PAO1 strain (from UniProt Q9K3C5 78-273) (domain or fragment)”: the stoichiometry N in [14], in assay [15] and in assay [16] was 2 throughout.

In the case of “FliD_(1–474(I167C/D253C)) produced by Pseudomonas (complementation strain ΔfliD/fliD_(1–474(I167C/D253C))) (from UniProt Q9K3C5 1-474) (natural protein)”, the stoichiometry N in assay [17] turned out to be 6.

As for “FliD lacking the C-terminal coiled-coil domain (FliD_(1–405)) from the P. aeruginosa PAO1 strain (from UniProt Q9K3C5 1-405) (domain or fragment)”, the stoichiometry N in assay [18] is 2.
